Results reported in patent US20220267464A1 (Hoffmann-La Roche, published 2022).
Where a chain is given by its changes, count along the chain named. In names and notes the source's numbering stands.

T1: human CEACAM5 (carcinoembryonic antigen, CEA) on cells (human, UniProt P06731 35-685)
T1 construct: endogenous on MKN45 gastric adenocarcinoma cells; full-length cDNA stably transfected in the CHO-K1 clones; also called huCEACAM5; MKN45 cells
T1 sequence: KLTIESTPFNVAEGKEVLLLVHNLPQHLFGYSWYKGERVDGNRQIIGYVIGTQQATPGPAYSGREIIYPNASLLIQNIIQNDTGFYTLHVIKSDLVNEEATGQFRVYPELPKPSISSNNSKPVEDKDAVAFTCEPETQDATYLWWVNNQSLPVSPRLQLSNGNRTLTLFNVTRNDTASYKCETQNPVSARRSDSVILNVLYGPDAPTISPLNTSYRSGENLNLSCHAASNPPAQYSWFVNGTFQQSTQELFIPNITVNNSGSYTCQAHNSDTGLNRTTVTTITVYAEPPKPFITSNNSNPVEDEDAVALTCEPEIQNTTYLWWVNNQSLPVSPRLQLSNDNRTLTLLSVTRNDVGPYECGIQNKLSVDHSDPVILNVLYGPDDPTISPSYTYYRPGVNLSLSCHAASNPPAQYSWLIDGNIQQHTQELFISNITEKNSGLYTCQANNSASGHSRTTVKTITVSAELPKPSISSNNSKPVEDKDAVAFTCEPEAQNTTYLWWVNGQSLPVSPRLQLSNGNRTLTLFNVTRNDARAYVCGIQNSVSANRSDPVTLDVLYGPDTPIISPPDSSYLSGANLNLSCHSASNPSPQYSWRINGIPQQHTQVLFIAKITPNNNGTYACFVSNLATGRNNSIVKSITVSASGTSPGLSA

B1: P1AE0096-001 MFE23 huIgG1 PG LALA (parental) (antibody, V domains shown)
VH: QVKLQQSGAELVRSGTSVKLSCTASGFNIKDSYMHWLRQGPEQGLEWIGWIDPENGDTEYAPKFQGKATFTTDTSSNTAYLQLSSLTSEDTAVYYCNEGTPTGPYYFDYWGQGTTVTVSS
VL: ENVLTQSPAIMSASPGEKVTITCSASSSVSYMHWFQQKPGTSPKLWIYSTSNLASGVPARFSGSGSGTSYSLTISRMEAEDAATYYCQQRSSYPLTFGAGTKLELK
notes: murine variable domains on huIgG1 P329G L234A L235A; also called parental murine MFE23 huIgG1 P329G LALA antibody
B2: P1AE3113 (antibody, IgG1, V domains shown)
VH: QVQLVQSGAEVKKPGASVKVSCKASGFNIKDSYMHWVRQAPGQGLEWMGWIDPENGDTEYAPKFQGRVTMTTDTSISTAYMELSRLRSDDTAVYYCNEGTPTGPYYFDYWGQGTLVTVSS
VL: EIQMTQSPSSLSASVGDRVTITCRASQSISSYMHWYQQKPGKAPKLLIYSTSNLASGVPSRFSGSGSGTDFTLTISSLQPEDFATYYCQQRSSYPLTFGGGTKLEIK
notes: huIgG1 P329G LALA; also called MFE-H24 / MFE-L26
B3: P1AE3107 (antibody, IgG1, V domains shown)
VH: B2 VH
VL: EIQMTQSPSSLSASVGDRVTITCRASSSVPYMHWYQQKPGKAPKLLIYSTSNLASGVPSRFSGSGSGTDFTLTISSVQPEDFATYYCQQRSSYPLTFGGGTKLEIK
notes: huIgG1 P329G LALA; also called MFE-H24 / MFE-L27; huMFE23-L27-H24
B4: P1AE3096 (antibody, IgG1, V domains shown)
VH: B2 VH with A16S, M70I, T74E, I76T, R85S, D89E
VL: B3 VL with Y35L
notes: huIgG1 P329G LALA; also called MFE-H29 / MFE-L28
B5: P1AE3106 (antibody, IgG1, V domains shown)
VH: B2 VH with F27Y, N28T, I29F
VL: B3 VL
notes: huIgG1 P329G LALA; also called MFE-H25 / MFE-L27
B6: P1AE3102 (antibody, IgG1, V domains shown)
VH: B2 VH with A16S, M70I, T74E, I76T, R85S, D89E
VL: B3 VL
notes: huIgG1 P329G LALA; also called MFE-H29 / MFE-L27; huMFE23-L27-H29
B7: P1AE3091 (antibody, IgG1, V domains shown)
VH: B2 VH with T72R
VL: B3 VL with Y35L, N52S, A54Q
notes: huIgG1 P329G LALA; also called MFE-H28 / MFE-L29
B8: P1AE3097 (antibody, IgG1, V domains shown)
VH: B2 VH with T72R
VL: B3 VL with Y35L
notes: huIgG1 P329G LALA; also called MFE-H28 / MFE-L28; huMFE23-L28-H28
B9: P1AE3112 (antibody, IgG1, V domains shown)
VH: B2 VH with F27Y, N28T, I29F
VL: B2 VL
notes: huIgG1 P329G LALA; also called MFE-H25 / MFE-L26
B10: P1AE3111 (antibody, IgG1, V domains shown)
VH: B2 VH with D57G, E59N, P62Q
VL: B2 VL
notes: huIgG1 P329G LALA; also called MFE-H26 / MFE-L26
B11: P1AE3100 (antibody, IgG1, V domains shown)
VH: B2 VH with F27Y, N28T, I29F
VL: B3 VL with Y35L
notes: huIgG1 P329G LALA; also called MFE-H25 / MFE-L28; huMFE23-L28-H25
B12: P1AE3110 (antibody, IgG1, V domains shown)
VH: B2 VH with N97A, E98R
VL: B2 VL
notes: huIgG1 P329G LALA; also called MFE-H27 / MFE-L26
B13: P1AE3094 (antibody, IgG1, V domains shown)
VH: B2 VH with F27Y, N28T, I29F
VL: B3 VL with Y35L, N52S, A54Q
notes: huIgG1 P329G LALA; also called MFE-H25 / MFE-L29
B14: P1AE3095 (antibody, IgG1, V domains shown)
VH: B2 VH
VL: B3 VL with Y35L, N52S, A54Q
notes: huIgG1 P329G LALA; also called MFE-H24 / MFE-L29
B15: P1AE3117 (antibody, IgG1, V domains shown)
VH: B2 VH with D57G, E59N, P62Q
VL: B3 VL with P30S, V77L
notes: huIgG1 P329G LALA; also called MFE-H26 / MFE-L25
B16: P1AE3104 (antibody, IgG1, V domains shown)
VH: B2 VH with N97A, E98R
VL: B3 VL
notes: huIgG1 P329G LALA; also called MFE-H27 / MFE-L27
B17: P1AE3099 (antibody, IgG1, V domains shown)
VH: B2 VH with D57G, E59N, P62Q
VL: B3 VL with Y35L
notes: huIgG1 P329G LALA; also called MFE-H26 / MFE-L28
B18: P1AE3090 (antibody, IgG1, V domains shown)
VH: B2 VH with A16S, M70I, T74E, I76T, R85S, D89E
VL: B3 VL with Y35L, N52S, A54Q
notes: huIgG1 P329G LALA; also called MFE-H29 / MFE-L29
B19: P1AE3093 (antibody, IgG1, V domains shown)
VH: B2 VH with D57G, E59N, P62Q
VL: B3 VL with Y35L, N52S, A54Q
notes: huIgG1 P329G LALA; also called MFE-H26 / MFE-L29
B20: P1AE3118 (antibody, IgG1, V domains shown)
VH: B2 VH with F27Y, N28T, I29F
VL: B3 VL with P30S, V77L
notes: huIgG1 P329G LALA; also called MFE-H25 / MFE-L25
B21: P1AE3109 (antibody, IgG1, V domains shown)
VH: B2 VH with T72R
VL: B2 VL
notes: huIgG1 P329G LALA; also called MFE-H28 / MFE-L26
B22: P1AE3115 (antibody, IgG1, V domains shown)
VH: B2 VH with T72R
VL: B3 VL with P30S, V77L
notes: huIgG1 P329G LALA; also called MFE-H28 / MFE-L25
B23: P1AE3120 (antibody, IgG1, V domains shown)
VH: B2 VH with A16S, M70I, T74E, I76T, R85S, D89E
VL: B3 VL with E1D, P30S, V77L
notes: huIgG1 P329G LALA; also called MFE-H29 / MFE-L24
B24: P1AE3108 (antibody, IgG1, V domains shown)
VH: B2 VH with A16S, M70I, T74E, I76T, R85S, D89E
VL: B2 VL
notes: huIgG1 P329G LALA; also called MFE-H29 / MFE-L26
B25: P1AE3105 (antibody, IgG1, V domains shown)
VH: B2 VH with D57G, E59N, P62Q
VL: B3 VL
notes: huIgG1 P329G LALA; also called MFE-H26 / MFE-L27; huMFE23-L27-H26
B26: P1AE3116 (antibody, IgG1, V domains shown)
VH: B2 VH with N97A, E98R
VL: B3 VL with P30S, V77L
notes: huIgG1 P329G LALA; also called MFE-H27 / MFE-L25
B27: P1AE3103 (antibody, IgG1, V domains shown)
VH: B2 VH with T72R
VL: B3 VL
notes: huIgG1 P329G LALA; also called MFE-H28 / MFE-L27; huMFE23-L27-H28
B28: P1AE3101 (antibody, IgG1, V domains shown)
VH: B2 VH
VL: B3 VL with Y35L
notes: huIgG1 P329G LALA; also called MFE-H24 / MFE-L28; huMFE23-L28-H24
B29: P1AE3121 (antibody, IgG1, V domains shown)
VH: B2 VH with T72R
VL: B3 VL with E1D, P30S, V77L
notes: huIgG1 P329G LALA; also called MFE-H28 / MFE-L24
B30: P1AE3092 (antibody, IgG1, V domains shown)
VH: B2 VH with N97A, E98R
VL: B3 VL with Y35L, N52S, A54Q
notes: huIgG1 P329G LALA; also called MFE-H27 / MFE-L29
B31: P1AE3114 (antibody, IgG1, V domains shown)
VH: B2 VH with A16S, M70I, T74E, I76T, R85S, D89E
VL: B3 VL with P30S, V77L
notes: huIgG1 P329G LALA; also called MFE-H29 / MFE-L25
B32: P1AE3119 (antibody, IgG1, V domains shown)
VH: B2 VH
VL: B3 VL with P30S, V77L
notes: huIgG1 P329G LALA; also called MFE-H24 / MFE-L25
B33: P1AE3098 (antibody, IgG1, V domains shown)
VH: B2 VH with N97A, E98R
VL: B3 VL with Y35L
notes: huIgG1 P329G LALA; also called MFE-H27 / MFE-L28

The binders below were run against T1, human CEACAM5 (carcinoembryonic …) (assay: flow cytometry, MKN45 cells).
Set-up: AUC: unit not given beside the values
B1 gave an AUC of 83500 and an EC50 of 9.36 nM.
In the case of B2, the AUC is reported as 757.
B3 showed an AUC of 91200 and an EC50 of 5.83 nM.
Binder B4 has an AUC of 87800 and an EC50 of 10.5 nM.
B5 gave an AUC of 1130.
B6 gave an AUC of 91500 and an EC50 of 5.41 nM.
With B7 the AUC was 83100 and the EC50 was 14.6 nM.
Binder B8 has an AUC of 98700 and an EC50 of 6.45 nM.
For B9, the AUC was 551.
Binder B10 has an AUC of 578.
B11 gave an AUC of 74100 and an EC50 of 9.89 nM.
Work on B12 yielded an AUC of 547.
Work on B13 yielded an AUC of 6910 and an EC50 of 47.6 nM.
With B14 the AUC was 84900 and the EC50 was 11.1 nM.
With B15 the AUC was 1180.
Work on B16 yielded an AUC of 414.
Work on B17 yielded an AUC of 95300 and an EC50 of 10.2 nM.
In the case of B18, the AUC is reported as 61800 and the EC50 is reported as 42 nM.
B19 gave an AUC of 68100 and an EC50 of 16.1 nM.
B20 was tested, and the AUC was 559.
Binder B21 has an AUC of 695.
With B22 the AUC was 10200 and the EC50 was 20.7 nM.
Binder B23 has an AUC of 24200 and an EC50 of 12.4 nM.
B24 showed an AUC of 2090.
Binder B25 has an AUC of 55900 and an EC50 of 7.92 nM.
Work on B26 yielded an AUC of 443.
In the case of B27, the AUC is reported as 92400 and the EC50 is reported as 5.88 nM.
Binder B28 has an AUC of 104000 and an EC50 of 6.58 nM.
B29 gave an AUC of 17500 and an EC50 of 17.1 nM.
B30 gave an AUC of 482.
Work on B31 yielded an AUC of 12800 and an EC50 of 30.6 nM.
In the case of B32, the AUC is reported as 10300 and the EC50 is reported as 41.9 nM.
Binder B33 has an AUC of 1190.

These binders were tested against T1, human CEACAM5 (carcinoembryonic …) (assay: flow cytometry, MKN-45 cells, goat F(ab')2 anti-human Fcγ-PE, gMFI).
B2: no binding (tested: about 300 nM).
B5: no binding (tested: about 300 nM).
B9: no binding (tested: about 300 nM).
B10: no binding (tested: about 300 nM).
B12: no binding (tested: about 300 nM).
B15: no binding (tested: about 300 nM).
B16: no binding (tested: about 300 nM).
B20: no binding (tested: about 300 nM).
B21: no binding (tested: about 300 nM).
B24: no binding (tested: about 300 nM).
B26: no binding (tested: about 300 nM).
B30: no binding (tested: about 300 nM).
B33: no binding (tested: about 300 nM).
